Experimental data published in patent US20110319338A1, “PEPTIDES THAT BIND EUKARYOTIC TRANSLATION INITIATION FACTOR 4E” (The Board of Regents of the University of Texas System, priority 2008, published 2011).
Square brackets hold non-standard residues; d marks the D form. Ends that are not written are not given here.

How the values were obtained:
Type in all cases: cell-based
[1] = molecular target: T1, binding of eIF4E to eIF4G in SKOV3+GnRH-RI cells (Homo sapiens, UniProt P06730); assay: eIF4E immunoprecipitation / eIF4G Western blot of lysates of peptide-treated cells; details: 10 micromoles per liter, 24 hours
T1 construct: endogenous in cells; host or cells: SKOV3+GnRH-RI cells
T1 sequence (P06730 2-217 limits assumed): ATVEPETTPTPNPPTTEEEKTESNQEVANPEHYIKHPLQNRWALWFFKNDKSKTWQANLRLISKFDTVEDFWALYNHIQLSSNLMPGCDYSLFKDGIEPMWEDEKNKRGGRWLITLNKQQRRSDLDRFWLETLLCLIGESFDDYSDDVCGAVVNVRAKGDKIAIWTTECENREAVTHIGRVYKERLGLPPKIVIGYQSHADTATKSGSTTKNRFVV
Protocol: (§1) FIGS. 8A-8D. Effect of [DLys6] GnRH-4EBP1 peptide in SKOV3 cells stably expressing GnRH-RI. (FIG. 8A) Western blot analysis of GnRH-RI in parental SKOV3 cells and SKOV3 cells transfected with GnRH-RI. In (FIG. 8B), SKOV3+GnRH-RI cells were treated with biotinylated peptides at a final concentration of 10 micromoles per liter or incubated without peptide. At 24 hours after treatment, lysates were prepared from cells. Peptide was pulled-down using streptavidin-agarose. Precipitates and supernatants were analyzed by Western blot using eIF4E antibody. (FIG. 8C) parental SKOV3, SKOV3+GnRH-RI and ES-2 cells were treated with the indicated peptides (10 micromoles per liter) or incubated without peptide. At 24 hours after treatment, lysates were prepared from cells. Immunoprecipitation was performed using eIF4E antibody, and Western blot of precipitates was performed using eIF4G antibody. Western blot of whole cell lysates of treated cells was performed using antibodies to eIF4G, eIF4E and actin. (FIG. 8D) TUNEL-staining of parental SKOV3 and SKOV3+GnRH-RI cells at 3 days following treatment with peptide at a final concentration of 30 micromoles per liter.
(§2) Immunoprecipitation (IP) and Western blotting. Biotinylated peptides were incubated with 250 micrograms of cell lysate at a final concentration of 3 micromoles per liter for 6 hours at 4° C. […]

[2] = test system: GnRH-RI-positive and -negative lines; assay: Cell viability assay across cell lines; details: 3 days
Protocol: FIGS. 3A-3H. Uptake, binding and inhibitory effects of [DLys6]GnRH-4EBP fusion peptides. (FIG. 3A) Sequences of [DLys6]GnRH, and wild-type and mutant 4EBP1 peptides fused to the agonist. (FIG. 3B) Western blot of GnRH-RI levels in OVCAR-3, ES-2, MDA-MB-231, BJ, HUVEC and SKOV3 cells. (FIG. 3C) Detection of biotinylated peptides in OVCAR-3 and SKOV3 by Texas Red-conjugated streptavidin at 16 hours after peptide addition (3 micromoles per liter). In (FIGS. 3D and 3E), biotinylated peptides were incubated with OVCAR-3 cell lysate as described in FIG. 1. In (FIG. 3D), peptide was pulled down using streptavidin-agarose. Precipitates (P) and supernatants (S) were analyzed by Western blot using eIF4E antibody. In (FIG. 3E), immunoprecipitation was performed using eIF4E antibody, and Western blot performed using eIF4G antibody. […]
FIGS. 14A-14B. […] Viability of cells at 3 days after peptide addition was measured by crystal violet staining and is expressed relative to viability of cells incubated with no peptide. […] Staining of cells with FITC-Annexin V and PI was analyzed by flow cytometry.
Cell viability and TUNEL assays. […] Cells were stained with 0.5% crystal violet solution, and absorbance measured at 570 nm. […] Cells were fixed in 70% ethanol and the extent of apoptosis was determined by flow cytometric analysis of TUNEL-staining using the APO-BRDU kit (Phoenix Flow Systems, San Diego Calif.). […]

[3] = molecular target: T2, eIF4E in SKOV3+GnRH-RI cells (Homo sapiens, UniProt P06730); assay: Pull-down of peptide from lysates of peptide-treated cells, Western blot with eIF4E antibody; details: 10 micromoles per liter, 24 hours
T2 construct: endogenous in cells; host or cells: SKOV3 cells stably transfected with human GnRH-RI (eIF4E itself is not transfected)
T2 sequence (P06730 whole entry): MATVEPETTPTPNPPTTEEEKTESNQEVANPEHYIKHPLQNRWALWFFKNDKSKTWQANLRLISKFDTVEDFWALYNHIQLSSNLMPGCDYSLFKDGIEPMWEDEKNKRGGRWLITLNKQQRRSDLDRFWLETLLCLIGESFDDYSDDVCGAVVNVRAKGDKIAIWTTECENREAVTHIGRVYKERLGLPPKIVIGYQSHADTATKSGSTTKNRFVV
Protocol: as §1, §2

## [DLys6]GnRH: GnRH agonist with a D-amino acid substitution at position 6; GnRH-RI-targeting moiety (QHWSY[dK]LRPG; not fully specified (residue 1, C-terminus); ends and bridges not checked)
[1]
  binding of eIF4E to eIF4G in treated cells: not inhibited
[2]
  cell growth across lines: did not significantly inhibit cell growth
[3]
  binding of peptide to eIF4E in treated cells: neither mutant peptide nor [DLys6]GnRH alone bound eIF4E
